Measured values taken from US20240084042A1 (Genentech, published 2024).

T1: human KLK5 (human, UniProt Q9Y337 67-293)
T1 sequence: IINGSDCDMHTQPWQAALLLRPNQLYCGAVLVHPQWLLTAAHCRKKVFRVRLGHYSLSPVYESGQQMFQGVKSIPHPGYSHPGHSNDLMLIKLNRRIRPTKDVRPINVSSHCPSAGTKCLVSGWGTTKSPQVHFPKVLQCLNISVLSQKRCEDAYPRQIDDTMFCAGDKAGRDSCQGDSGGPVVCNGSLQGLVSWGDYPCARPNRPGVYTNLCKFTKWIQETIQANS

T2: cynomolgus monkey KLK5 (cynomolgus monkey, UniProt Q9Y337 67-293 (human entry))
T2 chain: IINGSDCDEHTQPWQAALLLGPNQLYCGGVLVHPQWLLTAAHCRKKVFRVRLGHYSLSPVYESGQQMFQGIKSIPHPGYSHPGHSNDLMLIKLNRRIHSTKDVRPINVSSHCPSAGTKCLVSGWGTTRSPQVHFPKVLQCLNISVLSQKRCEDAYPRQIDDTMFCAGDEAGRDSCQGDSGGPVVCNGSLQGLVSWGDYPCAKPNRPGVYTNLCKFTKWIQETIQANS


Assays:
[1] = target: human KLK7 (SEQ ID NO: 4 plus a C-terminal FLAG tag) (human, UniProt P49862 30-253); test: cell-based or functional assay
Chain of human KLK7 (SEQ ID NO: 4 plus a C-terminal FLAG tag) (P49862 30-253): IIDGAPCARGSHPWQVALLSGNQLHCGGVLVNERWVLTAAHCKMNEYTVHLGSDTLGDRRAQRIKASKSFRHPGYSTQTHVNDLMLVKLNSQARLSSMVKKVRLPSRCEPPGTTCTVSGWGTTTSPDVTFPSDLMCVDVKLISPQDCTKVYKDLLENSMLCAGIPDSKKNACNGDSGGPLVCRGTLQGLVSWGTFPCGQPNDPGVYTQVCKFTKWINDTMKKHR

[2] = target: T1, human KLK5; test: cell-based or functional assay
[3] = target: T2, cynomolgus monkey KLK5; test: cell-based or functional assay
[4] = target: cyano KLK7 (SEQ ID NO: 6 plus a C-terminal FLAG tag) (cynomolgus monkey, UniProt P49862 30-253 (human entry)); test: cell-based or functional assay
Chain of cyano KLK7 (SEQ ID NO: 6 plus a C-terminal FLAG tag) (P49862 other isoform, or with tags, fused parts or gaps): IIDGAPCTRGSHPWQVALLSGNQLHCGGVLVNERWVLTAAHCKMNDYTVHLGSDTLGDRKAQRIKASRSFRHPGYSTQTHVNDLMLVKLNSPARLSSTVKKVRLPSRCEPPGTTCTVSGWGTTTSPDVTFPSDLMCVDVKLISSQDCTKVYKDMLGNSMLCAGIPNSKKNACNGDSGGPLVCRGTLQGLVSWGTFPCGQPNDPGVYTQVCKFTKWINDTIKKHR

[5] = target: T2, cynomolgus monkey KLK5; test: kinetics of bispecific antibody, method not restated (SPR implied)
[6] = target: T1, human KLK5; test: as above
[7] = target: T3, human KLK7 (human, UniProt P49862 30-253); test: as above
T3 construct: Antigen injected in SPR; also called hu KLK7; huKLK7
T3 sequence (P49862 30-253): as the sequence (P49862 30-253) above

[8] = target: T4, cynomolgus monkey KLK7 (cynomolgus monkey, UniProt P49862 30-253 (human entry)); test: as above
T4 construct: Antigen injected in SPR; also called Cy KLK7; cyno KLK7
T4 sequence (P49862 other isoform, or with tags, fused parts or gaps): as the sequence (P49862 other isoform, or with tags, fused parts or gaps) above

[9] = target: T3, human KLK7; test: SPR BIAcore 8K, antibody on protein A chip, 37 C
Description: The binding affinity of the humanized antibodies was determined by BIAcore™ 8K SPR system. For kinetics measurements, antibodies were captured on research grade protein A chip (GE Healthcare) to achieve approximately 300 RU. Ten-fold serial dilutions of human KLK7 were injected in HBS-P buffer at 37° C. with a flow rate of 100 μL/min. Association rates (ka) and dissociation rates (kd) were calculated using a 1:1 Langmuir binding model (BIAcore Insight Evaluation Software version 2.0). The equilibrium dissociation constant (KD) was calculated as the ratio kd/ka.

IC50, KLK7 direct functional assay (Mca-RPKPVE-Nval-WRK(Dnp)), bivalency corrected [1] [nM] | IC50, KLK5 direct functional assay (Boc-Val-Pro-Arg-AMC), bivalency corrected [2] [nM] | IC50, KLK5 direct functional assay (Boc-Val-Pro-Arg-AMC), bivalency corrected [3] [nM] | IC50, KLK7 direct functional assay (Mca-RPKPVE-Nval-WRK(Dnp)), bivalency corrected [4] [nM] | Kd [5] [nM] | koff [5] [s⁻¹] | kon [5] [M⁻¹ s⁻¹] | Kd [6] [nM] | koff [6] [s⁻¹] | kon [6] [M⁻¹ s⁻¹] | Kd [7] [nM] | koff [7] [s⁻¹] | kon [7] [M⁻¹ s⁻¹] | Kd [8] [nM] | koff [8] [s⁻¹] | kon [8] [M⁻¹ s⁻¹] | Kd [9] [nM] | koff [9] [s⁻¹] | kon [9] [M⁻¹ s⁻¹] | Binder
> 10 | 0.46 | 0.56 | > 10 |  |  |  |  |  |  |  |  |  |  |  |  |  |  |  | hu10C5VY (antibody, V domains shown) VH: EVQLVESGGGLVQPGGSLRLSCAASGFSLSSYGVTWVRQAPGKGLEWIGYITSVYGVSYYASWAKSRSTISRDTSKNTVYLQMGSLRAEDMAVYYCARENPDYGYAYDAWGQGTTVTVSS VL: AIRMTQSPSSFSASTGDRVTITCQASESISNELSWYQQKPGKAPKLLIYYASTLASGVPSRFSGSGSGTDFTLTISSLQPEDFATYYCAQGYGSSGVENVFGGGTKVEIK
0.37 | 0.67 | 0.73 | 0.37 | 0.019 | 0.00019 | 1e+07 | 0.0008 | 1.5e-05 | 2.1e+07 | < 0.001 | < 1e-06 | 5.8e+07 | 0.0023 | 9e-05 | 4e+07 |  |  |  | hu.10C5VY.hu14H11c.L2H11 WT (bispecific antibody, human IgG1, kappa, N297G, hIgG1 N297G knob-in-hole bispecific with Q39E/Q38K, Q39K/Q38E, S183K/V133E and S183E/V133K pairing mutations; also called anti-KLK5/KLK7 bispecific antibody without M428L/N434S) heavy 1: not shown light 1: DIQMTQSPSSLSASVGDRVTITCLASEDIASSVSWYQKKPGKAPKLLIYGASNLESGVPSRFSGSGSGTDYTLTISSLQPEDFATYYCLGGYSYSSTGTAFGGGTKVEIKRTVAAPSVFIFPPSDEQLKSGTASVECLLNNFYPREAKVQWKVDNALQSGNSQESVTEQDSKDSTYSLSSTLTLSKADYEKHKVYACEVTHQGLSSPVTKSFNRGEC heavy 2: EVQLVESGGGLVQPGGSLRLSCAASGFSLSSYGVTWVRKAPGKGLEWIGYITSVYGVSYYASWAKSRSTISRDTSKNTVYLQMGSLRAEDMAVYYCARENPDYGYAYDAWGQGTTVTVSSASTKGPSVFPLAPSSKSTSGGTAALGCLVKDYFPEPVTVSWNSGALTSGVHTFPAVLQSSGLYSLESVVTVPSSSLGTQTYICNVNHKPSNTKVDKKVEPKSCDKTHTCPPCPAPELLGGPSVFLFPPKPKDTLMISRTPEVTCVVVDVSHEDPEVKFNWYVDGVEVHNAKTKPREEQYGSTYRVVSVLTVLHQDWLNGKEYKCKVSNKALPAPIEKTISKAKGQPREPQVYTLPPSREEMTKNQVSLSCAVKGFYPSDIAVEWESNGQPENNYKTTPPVLDSDGSFFLVSKLTVDKSRWQQGNVFSCSVMHEALHNHYTQKSLSLSPGK light 2: AIRMTQSPSSFSASTGDRVTITCQASESISNELSWYQEKPGKAPKLLIYYASTLASGVPSRFSGSGSGTDFTLTISSLQPEDFATYYCAQGYGSSGVENVFGGGTKVEIKRTVAAPSVFIFPPSDEQLKSGTASVKCLLNNFYPREAKVQWKVDNALQSGNSQESVTEQDSKDSTYSLSSTLTLSKADYEKHKVYACEVTHQGLSSPVTKSFNRGEC
0.34 | 0.54 | 0.58 | 0.36 | 0.016 | 0.00018 | 1.11e+07 | 0.0015 | 1.97e-05 | 1.5e+07 | 0.00024 | 1.4e-05 | 5.7e+07 | 0.003 | 7e-05 | 3e+07 |  |  |  | hu.10C5VY.hu14H11c.L2H11 LS (bispecific antibody, human IgG1, kappa, N297G, hIgG1 N297G knob-in-hole bispecific with M428L/N434S and the chain pairing mutations; also called anti-KLK5/KLK7 bispecific antibody with M428L/N434S (LS)) heavy 1: EQQLVESGGGLIQPGGSLRLSCAASGFSFSSSYYMSWVREAPGKGLEWVSSIYAGSSGAPYYAGWAKGRFTISRDNSKNTLYLQMNSLRAEDTAVYYCAREGFAETGGYGYAAYFNLWGPGTLVTVSSASTKGPSVFPLAPSSKSTSGGTAALGCLVKDYFPEPVTVSWNSGALTSGVHTFPAVLQSSGLYSLKSVVTVPSSSLGTQTYICNVNHKPSNTKVDKKVEPKSCDKTHTCPPCPAPELLGGPSVFLFPPKPKDTLMISRTPEVTCVVVDVSHEDPEVKFNWYVDGVEVHNAKTKPREEQYGSTYRVVSVLTVLHQDWLNGKEYKCKVSNKALPAPIEKTISKAKGQPREPQVYTLPPSREEMTKNQVSLWCLVKGFYPSDIAVEWESNGQPENNYKTTPPVLDSDGSFFLYSKLTVDKSRWQQGNVFSCSVLHEALHSHYTQKSLSLSPGK light 1: DIQMTQSPSSLSASVGDRVTITCLASEDIASSVSWYQKKPGKAPKLLIYGASNLESGVPSRFSGSGSGTDYTLTISSLQPEDFATYYCLGGYSYSSTGTAFGGGTKVEIKRTVAAPSVFIFPPSDEQLKSGTASVECLLNNFYPREAKVQWKVDNALQSGNSQESVTEQDSKDSTYSLSSTLTLSKADYEKHKVYACEVTHQGLSSPVTKSFNRGEC heavy 2: EVQLVESGGGLVQPGGSLRLSCAASGFSLSSYGVTWVRKAPGKGLEWIGYITSVYGVSYYASWAKSRSTISRDTSKNTVYLQMGSLRAEDMAVYYCARENPDYGYAYDAWGQGTTVTVSSASTKGPSVFPLAPSSKSTSGGTAALGCLVKDYFPEPVTVSWNSGALTSGVHTFPAVLQSSGLYSLESVVTVPSSSLGTQTYICNVNHKPSNTKVDKKVEPKSCDKTHTCPPCPAPELLGGPSVFLFPPKPKDTLMISRTPEVTCVVVDVSHEDPEVKFNWYVDGVEVHNAKTKPREEQYGSTYRVVSVLTVLHQDWLNGKEYKCKVSNKALPAPIEKTISKAKGQPREPQVYTLPPSREEMTKNQVSLSCAVKGFYPSDIAVEWESNGQPENNYKTTPPVLDSDGSFFLVSKLTVDKSRWQQGNVFSCSVLHEALHSHYTQKSLSLSPGK light 2: AIRMTQSPSSFSASTGDRVTITCQASESISNELSWYQEKPGKAPKLLIYYASTLASGVPSRFSGSGSGTDFTLTISSLQPEDFATYYCAQGYGSSGVENVFGGGTKVEIKRTVAAPSVFIFPPSDEQLKSGTASVKCLLNNFYPREAKVQWKVDNALQSGNSQESVTEQDSKDSTYSLSSTLTLSKADYEKHKVYACEVTHQGLSSPVTKSFNRGEC
0.29 | > 10 | > 10 | 0.29 |  |  |  |  |  |  |  |  |  |  |  |  | 0.000356 | 1.22e-05 | 3.43e+07 | hu.14H11c.L2H11-hIgG1 (antibody, V domains shown, Humanized anti-KLK7 antibody, human IgG1) VH: EQQLVESGGGLIQPGGSLRLSCAASGFSFSSSYYMSWVRQAPGKGLEWVSSIYAGSSGAPYYAGWAKGRFTISRDNSKNTLYLQMNSLRAEDTAVYYCAREGFAETGGYGYAAYFNLWGPGTLVTVSS VL: DIQMTQSPSSLSASVGDRVTITCLASEDIASSVSWYQQKPGKAPKLLIYGASNLESGVPSRFSGSGSGTDYTLTISSLQPEDFATYYCLGGYSYSSTGTAFGGGTKVEIK
